Target: NP‐WT S nanoparticles (nanoparticles coated with WT spike proteins) (SARS-CoV-2)
Assay: SPR

B1: P5‐1C8 IgG (full‐length) (antibody, V domains shown)
VH: EVQLVESGGGLIQPGGSLRLSCAASEIIVSRNYMNWVRQAPGKGLEWVSVIYSGGSTFYADSVKGRFTISRDNSENTLYLQMNSLRAEDTAVYYCARGYGDYYFDYWGRGTLVTVSS
VL: not shown
**Q.** For B1, which koff is on record?
**A.** 2.19e-05 s⁻¹

Reference: PMC12931240 (2025)
